A word on the EC50: it is the midpoint of the concentration-response curve. The Kd is a measure of binding affinity in units of concentration. A low value points to a tighter complex. Broadly, the koff is a measure of how fast the partners let go of each other. Higher therefore signals fast dissociation. For orientation: kon means a measure of how fast the partners come together.

The target in one test is T1, recombinant human IgE (human, UniProt P01854-1 1-428).
T1 construct: made in-house (ALK); preloaded on immobilised FcεRIα in the displacement ELISA
T1 sequence (P01854 other isoform, or with tags, fused parts or gaps): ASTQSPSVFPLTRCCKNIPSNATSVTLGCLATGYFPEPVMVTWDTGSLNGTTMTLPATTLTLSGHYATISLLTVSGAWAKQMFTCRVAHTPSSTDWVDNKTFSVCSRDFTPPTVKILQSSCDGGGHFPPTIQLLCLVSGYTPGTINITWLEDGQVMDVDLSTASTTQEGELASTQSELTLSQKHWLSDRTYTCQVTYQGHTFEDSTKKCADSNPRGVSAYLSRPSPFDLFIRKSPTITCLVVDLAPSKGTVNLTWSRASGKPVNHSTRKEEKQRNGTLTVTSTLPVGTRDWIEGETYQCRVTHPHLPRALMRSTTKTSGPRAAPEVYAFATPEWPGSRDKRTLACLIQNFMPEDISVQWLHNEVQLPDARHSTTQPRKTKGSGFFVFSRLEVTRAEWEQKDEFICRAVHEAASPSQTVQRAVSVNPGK
Description: IgE-FcεRIα displacement ELISA. In outline:
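sdAbs at pM–μM were incubated 1 h on preformed complexes of 13 ng/ml recombinant human IgE with avi-tag-biotinylated human FcεRIα captured on streptavidin.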
A general note: An ELISA detects its analyte on a solid surface through an enzyme-linked reagent.

The target of test [1] is T2, biotinylated IgE: FcεRIα complex (UniProt P01854 104-428; P12319 26-205, biotinylated).
T2 construct: preformed complex used for yeast display titration and deep mutational scanning; also called IgE-Fc/FcεRIα; IgE-Fc Cε2-Cε4/FcεRIα complex
T2 sequence (P01854 other isoform, or with tags, fused parts or gaps, chain 1 of 2): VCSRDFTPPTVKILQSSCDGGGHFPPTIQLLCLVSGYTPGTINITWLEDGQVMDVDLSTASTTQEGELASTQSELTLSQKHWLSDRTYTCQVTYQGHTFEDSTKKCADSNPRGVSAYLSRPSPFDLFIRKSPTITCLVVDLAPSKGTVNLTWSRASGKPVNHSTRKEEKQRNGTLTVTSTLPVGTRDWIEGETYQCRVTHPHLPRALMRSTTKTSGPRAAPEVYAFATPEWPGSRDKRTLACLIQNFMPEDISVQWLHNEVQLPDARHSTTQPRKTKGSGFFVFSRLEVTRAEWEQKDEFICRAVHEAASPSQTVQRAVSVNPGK
T2 sequence (P12319 26-205, chain 2 of 2): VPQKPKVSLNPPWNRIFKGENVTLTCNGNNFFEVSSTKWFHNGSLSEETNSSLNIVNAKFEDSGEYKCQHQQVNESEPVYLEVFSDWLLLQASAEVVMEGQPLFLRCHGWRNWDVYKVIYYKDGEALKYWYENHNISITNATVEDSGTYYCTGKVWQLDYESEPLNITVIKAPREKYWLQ
Description: yeast display titration, flow cytometry. On the technique in general: In flow cytometry, cells or beads pass a laser one at a time.

The target in a further test is T3, biotinylated IgE Fc (UniProt P01854-1 104-428, biotinylated).
T3 construct: also called IgE Fc (made in-house ALK, Denmark)
T3 sequence (P01854 other isoform, or with tags, fused parts or gaps): as the sequence (P01854 other isoform, or with tags, fused parts or gaps, chain 1 of 2) above
Description: BLI (Octet), IgE Fc on sensor, 1:1 fit. The procedure: The biotinylated IgE Fc (made in-house ALK, Denmark) was immobilised on SAX (High precision streptavidin) sensors (FortéBIO) to max 1 nm. The association (240 s) and dissociation (600 s) were measured for the analytes in a serial dilution (from 10 nM to 0.37 nM). Data were subtracted to blank reference sensors exposed to the same serial analyte dilutions, aligned, and analysed in the Octet Data Analysis HT 11.1 Software (FortéBIO) using a 1:1 fitting model.

B1: sdAb A1 (VHH)
VHH: EVQLLESGGGLVQPGGSLRLSCAASGFTFGNYDMAWVRQAPGKRPEWVSSIDTGGDITHYADSVKGRFTISRDNAKNTLYLQMNSLRPEDTAVYWCATDEEYALGPNEFDYYGQGTLVTVSS
notes: also called sdAb 026; IGE026
With B1, in the test with recombinant human IgE, the EC50 was determined as 800 nM and the Max effect is > 95%. Moreover, the “apparent Kd (pooled screen)” value in test [1] was 0.345 nM. Further, in the test with biotinylated IgE Fc, binding was put at a Kd of 0.19 nM, the off-rate constant (koff) came to 0.0002 s⁻¹ and the kon worked out at 1e+06 M⁻¹ s⁻¹.
